Data reported in patent US20020107196A1.

Target: human CXCR4 receptor (human)
Experiment: cell-based or functional assay

Chain of stromal cell derived factor-1α (SDF-1α) (ligand) (chain): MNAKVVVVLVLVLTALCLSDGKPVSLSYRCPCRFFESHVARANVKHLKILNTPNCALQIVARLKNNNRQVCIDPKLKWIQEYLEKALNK

EC50 of HUVEC migration (Transwell chemotaxis): 10 to 20 nM | elevation of [Ca+2]i in HUVEC (fura-2 fluorescence); concentration of maximal response: 100 nM | percent migration of input EC (Transwell chemotaxis): 40%
Substance: stromal cell derived factor-1α (SDF-1α) (ligand)
